Measured values published in the Human Domainome abundance scans (Beltran et al. 2025).

B1: Chromodomain-helicase-DNA-binding protein 5, residues 338 to 390; numbered along this chain, Q8TDI0 (parent)
chain: YETDHQDYCEVCQQGGEIILCDTCPRAYHLVCLDPELEKAPEGKWSCPHCEKE

Variants of: B1
Assay: abundance fitness (aPCA) (normalised: wild type 0, dead -1); higher = more abundant; growth selection in yeast, the domain comes from the species named
Conditions: Homo sapiens

Abundance fitness, by site and new letter:
L30: Q 0.107; R 0.085; S -0.06; T -0.222; V -0.135; W -0.036; Y 0.193
V31: A -0.046; C -0.325; D -0.157; E 0.257; F 0.047; G 0.069; H 0.018; I -0.205; K -0.314; L -0.104; M -0.383; N -0.193; P 0.106; Q -0.315; R -0.27; S -0.145; T -0.023; W -0.566; Y -0.368
C32: A -1; D -0.806; E -0.52; G -0.969; H -0.765; I -0.786; K -1.03; L -0.993; M -0.926; N -0.579; P -0.885; Q -0.982; R -0.94; T -1.02; V -0.618; Y -0.777
L33: A -0.085; C -0.272; E -0.414; F -0.013; G -0.389; H 0.046; I -0.235; M 0.185; N -0.311; P -0.223; R -0.281; S 0.176; T 0.163; V -0.034; W 0.032; Y 0.064
D34: A 0.052; C -0.161; E 0.266; F -0.058; G -0.167; H 0.039; I -0.313; K -0.347; L -0.201; M -0.403; N -0.354; P -0.15; Q -0.098; R -0.125; S 0.093; T -0.195; V -0.14; W -0.516; Y -0.269
P35: C -0.313; E 0.001; F -0.915; G 0.181; H -0.524; I -0.209; K 0.082; L -0.078; M 0.121; N -0.211; Q -0.058; R -0.096; S -0.057; T 0.069; V 0.03; W -0.428; Y 0.027
E36: A -0.033; C -0.067; D 0.139; F -0.237; G 0.014; H -0.18; I -0.057; K 0.093; L -0.093; M 0.069; N -0.166; P 0.087; Q 0.046; S -0.163; T -0.042; V 0.205; W -0.321; Y -0.35
L37: C -0.094; E -0.566; F -0.147; G 0.032; H -0.069; K -0.04; M -0.152; N -0.102; P -0.085; R 0.115; S 0.211; T 0.101; V -0.026; W -0.496; Y -0.237
E38: A -0.024; C -0.221; F -0.053; H -0.207; I -0.294; K -0.199; L -0.115; M 0.042; N -0.271; P 0.188; Q -0.008; R -0.147; S -0.225; T -0.252; V -0.157; W -0.127
K39: A -0.081; C -0.358; D -0.208; E -0.096; F -0.315; G 0.03; I -0.045; L -0.002; M 0.191; P -0.091; Q -0.232; S -0.251; T -0.029; V -0.189; W -0.242; Y -0.278
A40: C -0.396; D -0.243; E -0.274; F 0.3; G -0.168; H -0.094; I 0.131; K -0.218; M 0.017; N 0.187; P -0.023; Q -0.273; R -0.072; S 0.024; T -0.088; V -0.033; W -0.404; Y -0.23
P41: A 0.058; C -0.379; E -0.114; F -0.164; G -0.106; H 0.056; I 0.117; K -0.118; L -0.135; M -0.124; N 0.18; Q -0.568; R -0.075; T -0.17; V -0.096; W -0.323; Y -0.443
E42: A -0.113; D -0.013; F -0.413; G -0.117; H -0.068; I -0.019; K -0.563; L -0.05; M 0.138; P -0.184; Q -0.224; R -0.085; S -0.241; T 0.014; V 0.068; W -0.318; Y -0.076
G43: A -0.192; C -0.117; D 0.044; E 0.029; F -0.138; H 0.166; I -0.169; K 0.057; L -0.096; M -0.088; N 0.23; P 0.032; Q -0.074; R -0.11; S 0.087; T 0.235; V 0.029; W -0.223; Y -0.323
K44: A -0.255; C -0.051; D 0.216; E 0.031; F -0.259; G 0.065; H -0.341; I -0.32; L -0.009; M 0.116; N -0.237; P -0.255; Q -0.053; R 0.14; S -0.125; T 0; W -0.236; Y -0.599
W45: A -0.105; C 0.157; D -0.268; E -0.202; F -0.05; G -0.091; H 0.283; I -0.146; K -0.046; L -0.157; M 0.115; P -0.086; Q -0.29; S -0.054; T -0.393; V 0; Y -0.293
S46: A -0.11; C 0.073; D -0.197; E -0.023; F -0.035; G -0.005; H -0.203; I 0.137; K -0.258; L 0.051; M -0.266; N -0.056; P -0.109; Q -0.331; R -0.143; T 0.024; V 0.011; W -0.14; Y -0.335
C47: A -0.841; D 0.064; E -0.9; F -0.765; G -0.797; H -0.248; I -0.95; K -0.599; L -0.855; M -0.945; N -0.953; P -0.96; Q -0.918; R -0.922; S -0.609; T -0.43; V -0.773; W -0.58; Y -1.2
P48: C 0.016; E -0.017; F 0.124; H -0.484; I 0.025; M 0.107; N 0.014; Q -0.087; S 0.016; T -0.006; V -0.04; W 0.01; Y -0.022
H49: A -0.011; D 0.422; E -0.225; G 0.071; K 0.041; L -0.176; M -0.234; N 0.104; P -0.024; Q 0.032; R -0.291; S -0.312; T 0.139; V -0.45; W -0.69; Y -0.042
C50: A -0.503; D -0.626
